Laboratory results taken from patent US20240287172A1 (SCIRHOM, published 2024).

T1: dog iRhom2 full length wild type, T7-tagged (dog, UniProt Q00M95 1-827)
T1 construct: whole, on cells; on MEF-DKO cells; also called Dog-iR2-FL-WT-T7
T1 sequence: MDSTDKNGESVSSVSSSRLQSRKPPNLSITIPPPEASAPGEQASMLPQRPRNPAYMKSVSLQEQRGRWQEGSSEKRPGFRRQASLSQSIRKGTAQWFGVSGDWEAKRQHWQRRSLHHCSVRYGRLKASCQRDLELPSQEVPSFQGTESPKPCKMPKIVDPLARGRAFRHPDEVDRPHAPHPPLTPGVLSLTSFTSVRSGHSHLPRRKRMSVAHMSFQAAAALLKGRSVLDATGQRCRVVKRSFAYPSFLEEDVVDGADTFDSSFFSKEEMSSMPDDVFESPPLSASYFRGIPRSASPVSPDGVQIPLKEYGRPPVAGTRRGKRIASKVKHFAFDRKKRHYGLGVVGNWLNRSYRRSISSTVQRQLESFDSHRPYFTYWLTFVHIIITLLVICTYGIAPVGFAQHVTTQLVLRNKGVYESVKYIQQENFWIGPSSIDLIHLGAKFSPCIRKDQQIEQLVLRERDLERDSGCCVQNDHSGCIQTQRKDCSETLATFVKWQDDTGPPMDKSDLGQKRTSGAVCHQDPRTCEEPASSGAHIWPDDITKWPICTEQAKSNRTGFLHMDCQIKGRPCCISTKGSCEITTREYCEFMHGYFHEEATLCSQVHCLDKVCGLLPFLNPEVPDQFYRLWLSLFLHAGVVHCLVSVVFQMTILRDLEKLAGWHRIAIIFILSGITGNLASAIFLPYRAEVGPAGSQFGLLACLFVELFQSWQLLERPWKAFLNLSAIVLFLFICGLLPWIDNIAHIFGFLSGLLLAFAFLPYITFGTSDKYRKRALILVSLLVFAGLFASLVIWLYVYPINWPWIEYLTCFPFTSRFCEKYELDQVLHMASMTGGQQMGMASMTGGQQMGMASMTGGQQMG

T2: human iRhom2, endogenously expressed (human, UniProt Q6PJF5 1-856)
T2 sequence: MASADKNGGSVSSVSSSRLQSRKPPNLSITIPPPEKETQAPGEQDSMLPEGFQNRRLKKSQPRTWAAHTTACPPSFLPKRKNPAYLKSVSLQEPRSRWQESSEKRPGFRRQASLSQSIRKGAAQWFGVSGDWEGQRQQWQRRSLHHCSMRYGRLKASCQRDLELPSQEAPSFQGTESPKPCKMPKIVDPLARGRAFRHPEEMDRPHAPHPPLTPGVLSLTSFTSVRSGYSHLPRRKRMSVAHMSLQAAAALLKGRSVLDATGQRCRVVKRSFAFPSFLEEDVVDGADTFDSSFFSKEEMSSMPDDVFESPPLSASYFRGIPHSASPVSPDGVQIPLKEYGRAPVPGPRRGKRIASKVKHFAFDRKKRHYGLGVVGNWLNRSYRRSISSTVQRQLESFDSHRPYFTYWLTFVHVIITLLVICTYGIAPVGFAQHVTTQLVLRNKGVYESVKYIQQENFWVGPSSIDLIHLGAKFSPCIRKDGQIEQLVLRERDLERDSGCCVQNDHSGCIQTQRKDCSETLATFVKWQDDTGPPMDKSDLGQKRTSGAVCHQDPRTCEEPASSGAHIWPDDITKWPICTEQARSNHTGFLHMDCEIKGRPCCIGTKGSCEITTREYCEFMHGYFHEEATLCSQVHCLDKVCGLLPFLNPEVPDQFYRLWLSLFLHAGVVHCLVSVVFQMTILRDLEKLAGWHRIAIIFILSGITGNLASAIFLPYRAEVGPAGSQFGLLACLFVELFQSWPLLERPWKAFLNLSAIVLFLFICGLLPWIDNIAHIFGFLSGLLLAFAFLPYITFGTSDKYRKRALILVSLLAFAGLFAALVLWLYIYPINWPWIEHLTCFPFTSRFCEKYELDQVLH


Assays:
[1] = target: T1, dog iRhom2 full length wild type, …; test: FACS, MEF-DKO cells; via representative antibody 16
Method: In brief, immortalized MEF-DKO-EV control cells, MEF-DKO-rhesus-iR2-FL-WT-T7 cells, MEF-DKO-cyno-iR2-FL-WT-T7 cells, MEF-DKO-dog-iR2-FL-WT-T7 cells and MEF-DKO-rabbit-iR2-FL-WT-T7 cells, as well as their respective iRhom1 counterparts, were harvested with 10 mM EDTA in PBS, washed and resuspended in FACS buffer (PBS, 3% FBS, 0.05% sodium azide), and seeded in Nunc U-bottom 96-well plates (Thermo Fisher Scientific, USA) at approximately 3×10⁵ cells per well. To pellet cells and remove supernatants, the plates were centrifuged at 1,500 rpm and 4° C. for 3 minutes. For primary staining, cells were resuspended in 100 μl per well of either FACS buffer alone (controls), mouse monoclonal anti-T7 IgG (Merck Millipore, USA) at 3 μg/ml FACS buffer or the antibodies of the invention also at 3 μg/ml FACS buffer and incubated on ice for 1 hour.
Afterwards, plates were centrifuged at 1,500 rpm and 4° C. for 3 minutes and washed twice with 200 μl per well of FACS buffer. For secondary staining, cells were spun down and resuspended in 100 μl per well of PE-conjugated goat anti-mouse IgG F(ab′)2 detection fragment (Dianova, Germany) diluted 1:100 in FACS buffer. Protected from light, the cell suspensions were incubated on ice for 1 hour. Plates were then centrifuged at 1,500 rpm and 4° C. for 3 minutes and washed three times with 200 μl per well of FACS buffer. Finally, cells were resuspended in 150 μl per well of FACS buffer and analyzed using a BD Accuri™ C6 Plus flow cytometer (Becton Dickinson, Germany).

[2] = target: T2, human iRhom2, endogenously expressed; test: cell-based or functional assay

Binder	binding result [1]	LPS-induced TNFα release from THP-1 cells, percent inhibition, 10 µg/ml, hybridoma-purified [2] [%]	LPS-induced TNFα release from THP-1 cells, percent inhibition, recombinant antibody [2] [%]	PMA-induced HB-EGF release from THP-1 cells, percent inhibition, 3 µg/ml [2] [%]	PMA-induced HB-EGF release from U-937 cells, percent inhibition [2] [%]	PMA-induced IL-6R release from THP-1 cells, percent inhibition, 1 µg/ml [2] [%]	PMA-induced IL-6R release from U-937 cells, percent inhibition, 1 µg/ml [2] [%]	PMA-induced IL-6R release from U-937 cells, percent inhibition, 3 µg/ml [2] [%]	PMA-induced TNFα release from U-937 cells, percent inhibition, 1 µg/ml [2] [%]	PMA-induced TNFα release from U-937 cells, percent inhibition, 3 µg/ml [2] [%]	PMA-induced TGFα release from PC3 cells, percent inhibition, 1 µg/ml [2] [%]
antibody 34 (antibody, V domains shown, mouse IgG, kappa light chain; also called clone #34; purified antibody 34) VH: QVTLKESGPGILQPSQTLSLTCSFSGFSLSTFSLGVGWIRQSSGKGLEWLAHIWWDDEKYYNPALKSRLTISKDTSKNQVFLKIANVDAADTATYYCARAYYSKSYYALDYWGQGTSVTVSS VL: DIQMTQSPSSLSASLGERVSLTCRASQEISGYLSWLQQKPDGTIKRLIYAASTLDSGVPKRFSGSRSGSDYSLAISSLESEDFADYYCLQYANFPFTFGSGTKLEIK	binds	27.3	73.8	64.2	98.2	71.1	69.3	74.6	68.6	79.9	–
antibody 46 (antibody, V domains shown, mouse IgG, kappa light chain; also called clone #46) VH: QVTLKESGPGILQPSQTLSLTCSFSGFSLSTFGMGVGWIRQPSGKGLEWLAHIWWDDDNYYNQALKSRLTISKDNTKNQVFLNIANVDTADTATYYCARIRSYDYDVRYAMDYWGQGTSVTVSS VL: DIKMTQSPSSMYASLRERVTITCKASQDINSYLSWFQQKPGKSPKTLIYRANRLVDGVPSRFSGSGSGQDYSLTISSLEYEDLGIYYCQQYYEFPLTFGAGTRLELK	binds	–	36.1	–	–	–	–	–	–	–	–
antibody 43 (antibody, V domains shown, mouse IgG, kappa light chain; also called clone #43; purified antibody 43) VH: QVALKESGPGILQPSQTLSLTCSFSGFSLSTFGMGVGWIRQSSGKGLEWLANIWWDDDKYYNPALKSRLTISKDASKNQAFLKIANVDTADTATYYCARIGNYGSNYWYFDVWGTGTTVTVSS VL: QIVLTQSPAIMSASPGERVTMTCSANSRISYMYWYQQKPGSSPRLLIYDTSNLASGVPVRFSGSGSGTSYSLTISRMEAEDAATYNCQQWSSYPLTFGAGTKLELK	binds	74.8	78.5	–	–	72.9	76.1	–	78.3	–	12.4
antibody 44 (antibody, V domains shown, mouse IgG, kappa light chain; also called clone #44; purified antibody 44) VH: QVTLKESGPGILQPSQTLSLTCSFSGFSLSTFGMGVGWIRQPSEKGLEWLAHIWWDDDKYYNPALKSRLTISKDTSKNQIFLKITNVDTAETATYYCSRIGNYGSNYWYFDVWGTGTTVTVSS VL: QIVLTQSPAVMSASPGEKVTMTCTASSSVYYMYWYQQTPGSSPRLLIYDTSNLASGVPVRFSGSGSGTSYSLTISRMEAEDAATYYCQQWNTYPLTFGAGTKLELK	binds	32.2	73.2	67.5	100	73	71.8	82	76.5	86.3	14.1
antibody 57 (antibody, V domains shown, mouse IgG, kappa light chain; also called clone #57) VH: QVTLKESGPGILQPSQTLSLTCSFSGFSLSTFGMGVGWIRQPSGKGLEWLAHIWWDDDKYYNPALKSRLTISKDTSKNQIFLKIANVDTADSATFYCARIENYGSNYWYFDVWGTGTTVTVSS VL: QIVLTQSPAIMSASPGEKVTMTCSASSSVSYMYWYQQKPGSSPRVLIYDTSNLASGVPVRFSGSGSGTSYSLTVSRMEAEDAATYYCQQWNSYPLTFGAGTKLELK	binds	–	59.7	–	–	–	–	–	–	–	–
antibody 54 (antibody, V domains shown, mouse IgG, kappa light chain; also called clone #54) VH: QVTLKESGPGILQPSQTLSLTCSFSGFSLSTFGLGVGWIRQPSGKGLECLAHIWWDDDKYSNPALKSRLTISKDTSKNQVFLKIANVDSADTATYFCARILNYGSNYWYFDVWGTGTTVTVSS VL: QIVLTQSPALMSASPGEKVTMTCSASSSISYMYWYQQKPGSSPRLLIYDTSNLASGVPVRFSGSGSGTSFSLTVSRMEAEDAATYYCQQWNSYPLTFGAGTKLELK	binds	–	67.9	–	–	–	–	–	–	–	–
antibody 56 (antibody, V domains shown, mouse IgG, kappa light chain; also called clone #56) VH: QVTLKESGPGILQPSQTLSLTCSFSGFSLSTFGMGVGWIRQPSGKGLEWLTNIWWDDDKYYNSVLKSRLTISKDTSKNQVFLKIANVDTADTATYYCARIAAYGSNYWYFDVWGTGTTVTVSS VL: QIVLTQSPAIMSASPGEKVTMTCSASSSVSYMYWYQQKPGSSPRVLIYDTSNLSSGVPVRFSGSGSGTSYSLTISRMEAEDAATYYCQQWSSYPLTFGAGTKLELK	binds	–	65.8	–	–	–	–	–	–	–	–
antibody 49 (antibody, V domains shown, mouse IgG, kappa light chain; also called clone #49) VH: QVTLKESGPGILQPSQTLSLTCSFSGFSLSTFGMGVGWIRQPSGKGLEWLAHIWWDDDKYYNPALQSRLTVSKDTAKNQVFLKIANVDTADTAIYYCARVGNYGSNYWYFAVWGTGTTVTVSS VL: QIVLTQSPAIMSASPGEKVTMTCSASSSVSYMYWYQQKPGSSPRLLIYDTSNLASGVPVRFSGSGSGTSYSLTISRMEAEDAATYYCQQWNSYPLTFGAGTKLELK	binds	–	59.9	–	–	–	–	–	–	–	–
